Test results taken from patent US9205136B2, “Human aminoacyl-tRNA synthetase polypeptides useful for the regulation of angiogenesis” (THE SCRIPPS RESEARCH INSTITUTE, priority 2000, dated 2015).
“Also recorded” adds a separate entry of the source.

Legend:
[1] = system: chick chorioallantoic membrane (CAM); experiment: In vivo angiogenesis assay in chick chorioallantoic membrane (CAM); conditions: 250 ng TyrRS molecule or 25 ng VEGF165 on filter disk, 72 hours
Protocol: In vivo angiogenesis assays were conducted in chick chorioallantoic membrane (CAM) (Nicolaou et al., 1998, Bioorg. Med. Chem. 6:1185-208). Ten-day-old chick embryos were purchased from Mcintyre Poultry (Lakeside, Calif.) and were incubated at 37° C. and 70% humidity. A small hole was made with a small crafts drill (Dremel, Emerson Electric, Racine, Wis.) directly over the air sac at the end of the egg. The embryos were candled to determine a location to drill a second hole directly over embryonic blood vessels. […] A window was cut in the eggshell over the dropped CAM, exposing the CAM to direct access for experimental manipulation. Cortisone acetate-treated 5 mm filter disks were soaked with a particular protein sample (25 ng of VEGF165 or 250 ng of a given TyrRS molecule) and the filter disks added directly to the CAMs, which were relatively devoid of preexisting blood vessels. The windows were sealed with sterile tape and incubated at 37° C. […] After 72 hours, the CAM tissue associated with the filter disk was harvested and quantified using a stereomicroscope. Angiogenesis was assessed as the number of visible blood vessel branch points within the defined area of the filter disks. Each determination shown in FIG. 17 represents the mean from 5-8 embryos.

MPs [2] = experiment: MP TNFα production (ELISA of culture supernatant); format: cell-based, human; conditions: 1 nM sample protein, 14 hours
Protocol: (§1) Cells for the various cytokine assays described were prepared from acid citrate dextrose-treated blood of normal healthy volunteers. Human PMNs were isolated from the blood by centrifugation (700×g) over Histopaque 1077 and 1119 (Sigma). […] This procedure was repeated twice. Human MPs were isolated by centrifugation on Histopaque 1077 (Sigma). The mononuclear fraction was obtained, washed twice in Hanks' balanced salt solution, resuspended in RPMI-1640 medium (Sigma) containing 10% heat-inactivated fetal bovine serum (Sigma), plated in tissue culture flasks, and incubated in a 6% CO2 incubator at 37° C. for 1-2 hours (Kumagai et al., 1979, J. Immunol. Methods 29:17-25). Nonadherent cells were removed by washing the flasks three times with Hanks' balanced salt solution, and adherent cells were harvested by incubation with calcium-magnesium free phosphate-buffered saline containing 2 mM EDTA for 15 minutes at 4° C., followed by extensive washing.
MP TNFα production was examined following incubation of 10^5 MPs with 1 nM of sample protein for 14 hours. Aliquots of the culture supernatant were then assayed for TNFα production using a TNFα enzyme-linked immunosorbent assay kit (Sigma). Each determination shown in FIG. 2 represents the mean of four measurements from at least three independent experiments.

PMNs = experiment: 125I-human mini TyrRS binding and competition assay on PMNs; conditions: 10 nM 125I-mini TyrRS, 200-fold molar excess of unlabeled ligand, on ice 2 hours
Outline: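 Human PMNs (2×10^6) in RPMI-1640 with 20 mM Hepes pH 7.4 and 10 mg/ml BSA were incubated with radioiodinated mini TyrRS. Bound and free label were separated by centrifugation through a 10% sucrose/PBS cushion, and cell-associated radioactivity was counted by scintillation.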

MPs [3] = experiment: MP chemotaxis assay (ChemoTX microchemotaxis chamber); format: cell-based, human; conditions: sample proteins 1 nM, 3 hours
Protocol: as §1
MP chemotaxis assays were performed in a ChemoTX microchemotaxis chamber (Neuro Probe, Gaithersburg, Md.) containing polycarbonate filters (5 μm pores) with polyvinylpyrrolidone (PVP). MPs were suspended in RPMI-1640 medium containing 1% heat-inactivated fetal bovine serum, and 10^4 cells were added to the upper chamber. Sample proteins (1 nM) were added to the lower compartment of chemotaxis chambers, and the chambers were incubated for 3 hours. After incubation, nonmigrating cells were removed, membranes were fixed in methanol, and migrating cells were visualized with the HEMACOLOR™ stain set (EM Diagnostic Systems, Gibbstown, N.J.). Migrating cells were counted in high-power fields (HPFs). Each determination shown in FIG. 2 represents the average of nine HPF measurements.

type B receptor = target: T1, type B receptor (Homo sapiens, UniProt P25025); experiment: Binding to RBL2H3 cells transfected with IL-8 receptor type B; conditions: transfected RBL2H3 rat basophilic leukemia cells; read-out: Kd on cells expressing the type B receptor
T1 construct: expressed in transfected cells; host or cells: RBL2H3 rat basophilic leukemia cells
T1 sequence (P25025 1-360): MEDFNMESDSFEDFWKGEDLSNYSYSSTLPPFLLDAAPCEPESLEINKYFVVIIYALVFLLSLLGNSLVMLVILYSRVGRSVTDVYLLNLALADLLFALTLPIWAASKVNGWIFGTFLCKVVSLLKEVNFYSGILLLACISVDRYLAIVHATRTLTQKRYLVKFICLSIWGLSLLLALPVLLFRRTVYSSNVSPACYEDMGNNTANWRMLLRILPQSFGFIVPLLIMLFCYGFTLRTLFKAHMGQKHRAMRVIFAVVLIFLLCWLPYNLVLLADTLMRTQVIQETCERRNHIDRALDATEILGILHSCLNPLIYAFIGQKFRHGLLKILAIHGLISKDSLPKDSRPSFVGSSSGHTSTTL
Protocol: Following incubation, cells were separated from unbound radioactivity as described herein.
Untransfected RBL2H3 cells express neither the type A nor type B receptors.

Kd (type B receptor): > 200 nM
B1: mini TyrRS: truncated TyrRS, residues 1-364 of full-length TyrRS, amino-terminal catalytic domain (protein)
chain: MGDAPSPEEKLHLITRNLQEVLGEEKLKEILKERELKIYWGTATTGKPHVAYFVPMSKIADFLKAGCEVTILFADLHAYLDNMKAPWELLELRVSYYENVIKAMLESIGVPLEKLKFIKGTDYQLSKEYTLDVYRLSSVVTQHDSKKAGAEVVKQVEHPLLSGLLYPGLQALDEEYLKVDAQFGGIDQRKIFTFAEKYLPALGYSKRVHLMNPMVPGLTGSKMSSSEEESKIDLLDRKEDVKKKLKKAFCEPGNVENNGVLSFIKHVLFPLKSEFVILRDEKWGGNKTYTAYVDLEKDFAAEVVHPGDLKNSVEVALNKLLDPIREKFNTPALKKLASAAYPDPSKQKPMAKGPAKNSEPEEVILEHHHHHH
modifications: His6 tag; Human mini TyrRS in pET20B
notes: truncated TyrRS, residues 1-364 of full-length TyrRS, amino-terminal catalytic domain
in vivo angiogenesis in chick CAM (blood vessel branch points) [1]: induced angiogenesis
MP TNFα production (MPs [2]): did not stimulate production
inhibition of 125I-mini TyrRS binding to PMNs by unlabeled ligand (PMNs): inhibited the binding; also recorded: inhibited by the presence of excess amounts of unlabeled mini TyrRS
MP chemotaxis (MP migration) (MPs [3]): did not induce MP migration
